Reference: paper PMC8284666, “Biochemical characterization of protease activity of Nsp3 from SARS-CoV-2 and its inhibition by nanobodies” (PLoS ONE, 2021)

B1: NbSL17, displayed on yeast (VHH)
VHH: QVQLQESGGGLVQAGGSLRLSCAASGSISDSTRMGWYRQAPGKERELVATITYGSTTYYADSVKGRFTISRDNAKNTVYLQMNSLKPEDTAVYYCAAFDENVYVYRPYHYYWGQGTQVTVSS
B2: NbSL19, displayed on yeast (VHH)
VHH: QVQLQESGGGLVQAGGSLRLSCAASGSIFFQAYMGWYRQAPGKERELVAGIDAGTTTYYADSVKGRFTISRDNAKNTVYLQMNSLKPEDTAVYYCAAEYFWNYNPYRGTNSTHPYWGQGTQVTVSS

Biological target: T1, Biotinylated AVI-PLpro wild type (SARS-CoV-2 Nsp3 743-1072) (SARS-CoV-2, Wuhan-Hu-1 (MN908947.3), UniProt P0DTD1, biotin (BirA biotinylation of the Avi tag))
T1 construct: also called biotinylated PLpro; WT PLpro^CoV-2
Assay: flow cytometry on cells
Conditions: one partner purified

Binder	binding result
B1	binds
B2	binds
